The values that follow come from patent publication US20220017612A1.

Test [1] concerns the target LAP-TGFβ1 on U937 cells (Homo sapiens) (UniProt P01137). Kind of test: flow cytometry dot plot against GARP, U937 cells, Alexa 647 antibody at 10 ug/ml. In general terms: Flow cytometry measures light scatter and fluorescence of single cells or particles in a stream.
Test [2] addresses human-chicken LAP-TGFβ1 chimera #6 on HT1080 cells (human/chicken chimera) (UniProt P01137). As to the kind of experiment: flow cytometry, transduced HT1080 cells.
Test [3] has as its target human LAP-TGFβ1 overexpressed on cells (human) (UniProt P01137). Kind of test: flow cytometry, transduced HT1080 cells.
Test [4] concerns the target human-chicken LAP-TGFβ1 chimera #7 on HT1080 cells (human/chicken chimera) (UniProt P01137). As to the kind of experiment: flow cytometry, transduced HT1080 cells.
The target of test [5] is human-chicken LAP-TGFβ1 chimera #2 on HT1080 cells (human/chicken chimera). Kind of test: flow cytometry, transduced HT1080 cells.
Chain of human-chicken LAP-TGFβ1 chimera #2 on HT1080 cells (human/chicken chimera) (chain, as listed by the source mutant limits assumed): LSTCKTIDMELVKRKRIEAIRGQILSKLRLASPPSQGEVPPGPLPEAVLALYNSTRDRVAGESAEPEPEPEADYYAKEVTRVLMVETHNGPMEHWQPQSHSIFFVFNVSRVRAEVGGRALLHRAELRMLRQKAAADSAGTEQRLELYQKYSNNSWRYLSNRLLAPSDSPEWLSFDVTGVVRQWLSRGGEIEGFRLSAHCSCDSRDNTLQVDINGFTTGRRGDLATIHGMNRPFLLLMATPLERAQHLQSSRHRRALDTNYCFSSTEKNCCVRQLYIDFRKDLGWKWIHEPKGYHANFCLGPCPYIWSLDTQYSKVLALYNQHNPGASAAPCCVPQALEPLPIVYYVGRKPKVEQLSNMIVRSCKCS
The target of test [6] is human-chicken LAP-TGFβ1 chimera #2.1 on HT1080 cells (human/chicken chimera) (UniProt P01137). As to the kind of experiment: flow cytometry, transduced HT1080 cells.
Chain of human-chicken LAP-TGFβ1 chimera #2.1 on HT1080 cells (human/chicken chimera) (P01137 other isoform, or with tags, fused parts or gaps mutant): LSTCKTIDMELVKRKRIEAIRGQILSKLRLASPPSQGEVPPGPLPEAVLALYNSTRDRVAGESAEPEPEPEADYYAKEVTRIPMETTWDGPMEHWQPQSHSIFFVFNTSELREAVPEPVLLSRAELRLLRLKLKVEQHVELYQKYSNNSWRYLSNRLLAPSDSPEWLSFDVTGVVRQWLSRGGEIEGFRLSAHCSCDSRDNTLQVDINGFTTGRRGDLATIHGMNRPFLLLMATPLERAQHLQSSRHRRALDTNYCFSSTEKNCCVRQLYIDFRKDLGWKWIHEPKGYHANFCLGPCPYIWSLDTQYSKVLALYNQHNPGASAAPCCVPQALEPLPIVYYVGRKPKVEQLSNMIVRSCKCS
Test [7] addresses chicken LAP-TGFβ1 on HT1080 cells (chicken) (UniProt P09531). Kind of test: flow cytometry, transduced HT1080 cells.
Test [8] concerns the target human-chicken LAP-TGFβ1 chimera #1.3 on HT1080 cells (human/chicken chimera) (UniProt P01137). As to the kind of experiment: flow cytometry, transduced HT1080 cells.
Test [9] concerns the target human-chicken LAP-TGFβ1 chimera #4 on HT1080 cells (human/chicken chimera) (UniProt P01137). As to the kind of experiment: flow cytometry, transduced HT1080 cells.
Test [10] has as its target human-chicken LAP-TGFβ1 chimera #5 on HT1080 cells (human/chicken chimera). Kind of test: flow cytometry, transduced HT1080 cells.
In test [11] the target is human-chicken LAP-TGFβ1 chimera #2.2 on HT1080 cells (human/chicken chimera) (UniProt P01137). Kind of test: flow cytometry, transduced HT1080 cells.
Chain of human-chicken LAP-TGFβ1 chimera #2.2 on HT1080 cells (human/chicken chimera) (P01137 other isoform, or with tags, fused parts or gaps mutant): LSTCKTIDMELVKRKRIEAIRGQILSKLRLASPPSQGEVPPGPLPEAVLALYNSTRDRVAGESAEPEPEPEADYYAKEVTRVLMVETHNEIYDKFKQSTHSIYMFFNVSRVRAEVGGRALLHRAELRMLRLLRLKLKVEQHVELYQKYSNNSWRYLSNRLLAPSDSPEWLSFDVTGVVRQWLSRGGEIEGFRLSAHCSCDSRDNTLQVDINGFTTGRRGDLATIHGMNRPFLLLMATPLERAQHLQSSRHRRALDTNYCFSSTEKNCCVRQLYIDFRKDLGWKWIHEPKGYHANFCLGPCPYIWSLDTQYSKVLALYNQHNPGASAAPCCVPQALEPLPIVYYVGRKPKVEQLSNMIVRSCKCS
For test [12], the target named is human-chicken LAP-TGFβ1 chimera #1 on HT1080 cells (human/chicken chimera). Kind of test: flow cytometry, transduced HT1080 cells.
Chain of human-chicken LAP-TGFβ1 chimera #1 on HT1080 cells (human/chicken chimera) (chain, as listed by the source mutant limits assumed): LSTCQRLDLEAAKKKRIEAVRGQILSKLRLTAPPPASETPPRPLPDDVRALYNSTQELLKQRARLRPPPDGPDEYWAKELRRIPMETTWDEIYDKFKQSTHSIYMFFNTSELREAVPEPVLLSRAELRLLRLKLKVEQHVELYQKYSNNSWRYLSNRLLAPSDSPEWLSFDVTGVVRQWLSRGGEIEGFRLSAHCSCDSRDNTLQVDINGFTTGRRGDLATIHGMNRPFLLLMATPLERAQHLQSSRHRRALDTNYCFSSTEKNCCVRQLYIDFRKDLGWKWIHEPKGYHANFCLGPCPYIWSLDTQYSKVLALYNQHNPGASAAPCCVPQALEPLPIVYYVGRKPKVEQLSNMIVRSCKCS
In test [13] the target is human-chicken LAP-TGFβ1 chimera #3 on HT1080 cells (human/chicken chimera) (UniProt P01137). As to the kind of experiment: flow cytometry, transduced HT1080 cells.
Chain of human-chicken LAP-TGFβ1 chimera #3 on HT1080 cells (human/chicken chimera) (P01137 other isoform, or with tags, fused parts or gaps mutant): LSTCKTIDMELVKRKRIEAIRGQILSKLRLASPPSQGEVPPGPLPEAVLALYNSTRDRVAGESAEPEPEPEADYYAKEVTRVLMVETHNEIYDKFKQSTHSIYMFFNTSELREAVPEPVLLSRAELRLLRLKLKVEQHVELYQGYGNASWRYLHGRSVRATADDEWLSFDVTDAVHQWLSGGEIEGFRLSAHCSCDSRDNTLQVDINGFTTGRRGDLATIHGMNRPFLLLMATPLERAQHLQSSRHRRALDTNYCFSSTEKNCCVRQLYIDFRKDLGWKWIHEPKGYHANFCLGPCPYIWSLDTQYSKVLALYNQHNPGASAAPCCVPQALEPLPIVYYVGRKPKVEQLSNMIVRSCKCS
Test [14] has as its target human-chicken LAP-TGFβ1 chimera #1.2 on HT1080 cells (human/chicken chimera) (UniProt P01137). As to the kind of experiment: flow cytometry, transduced HT1080 cells.

Chain of LAP-TGFβ1 on U937 cells (Homo sapiens) (P01137 30-390 limits assumed): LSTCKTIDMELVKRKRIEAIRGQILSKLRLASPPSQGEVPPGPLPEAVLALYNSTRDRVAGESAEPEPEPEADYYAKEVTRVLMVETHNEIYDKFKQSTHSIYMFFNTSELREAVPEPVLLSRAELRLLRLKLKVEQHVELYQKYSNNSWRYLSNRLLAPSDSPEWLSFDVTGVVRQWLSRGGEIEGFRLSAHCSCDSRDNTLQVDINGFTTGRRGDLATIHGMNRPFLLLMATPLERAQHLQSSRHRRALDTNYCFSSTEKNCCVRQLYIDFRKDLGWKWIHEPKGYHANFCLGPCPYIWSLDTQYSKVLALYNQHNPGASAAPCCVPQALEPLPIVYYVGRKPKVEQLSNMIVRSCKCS
Chain of human-chicken LAP-TGFβ1 chimera #4 on HT1080 cells (human/chicken chimera) (P01137 other isoform, or with tags, fused parts or gaps mutant): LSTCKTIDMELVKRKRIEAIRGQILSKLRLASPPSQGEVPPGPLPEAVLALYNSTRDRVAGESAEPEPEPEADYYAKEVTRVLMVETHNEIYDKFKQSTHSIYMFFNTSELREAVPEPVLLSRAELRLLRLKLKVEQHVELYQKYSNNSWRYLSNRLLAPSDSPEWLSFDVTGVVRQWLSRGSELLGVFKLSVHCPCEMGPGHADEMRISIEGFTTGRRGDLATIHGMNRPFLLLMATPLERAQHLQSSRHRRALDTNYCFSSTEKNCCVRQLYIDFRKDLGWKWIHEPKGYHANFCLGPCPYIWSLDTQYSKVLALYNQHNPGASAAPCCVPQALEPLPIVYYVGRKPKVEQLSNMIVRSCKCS
Chain of human-chicken LAP-TGFβ1 chimera #1.2 on HT1080 cells (human/chicken chimera) (P01137 other isoform, or with tags, fused parts or gaps mutant): as the sequence (P01137 30-390 limits assumed) above, with A31T, S32A, S35P, Q36A, G37S, V39T, G42R, E46D, A47D, L49R counted along it
Chain of human-chicken LAP-TGFβ1 chimera #7 on HT1080 cells (human/chicken chimera) (P01137 other isoform, or with tags, fused parts or gaps mutant): as the sequence (P01137 30-390 limits assumed) above, with A331T, E333D, V338I, K344N, P345V, K346R, I354V, S357A counted along it
Chain of human-chicken LAP-TGFβ1 chimera #6 on HT1080 cells (human/chicken chimera) (P01137 other isoform, or with tags, fused parts or gaps mutant): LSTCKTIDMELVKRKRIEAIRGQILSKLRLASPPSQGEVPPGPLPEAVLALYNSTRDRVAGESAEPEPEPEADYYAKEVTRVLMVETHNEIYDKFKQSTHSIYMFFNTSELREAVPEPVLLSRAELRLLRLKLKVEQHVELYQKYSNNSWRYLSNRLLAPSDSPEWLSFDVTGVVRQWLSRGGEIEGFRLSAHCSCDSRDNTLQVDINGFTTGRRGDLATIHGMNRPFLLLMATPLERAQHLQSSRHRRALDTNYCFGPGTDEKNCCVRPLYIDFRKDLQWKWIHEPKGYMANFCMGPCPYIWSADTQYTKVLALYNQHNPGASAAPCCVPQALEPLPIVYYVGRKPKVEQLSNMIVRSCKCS
Chain of chicken LAP-TGFβ1 on HT1080 cells (chicken) (P09531 19-391): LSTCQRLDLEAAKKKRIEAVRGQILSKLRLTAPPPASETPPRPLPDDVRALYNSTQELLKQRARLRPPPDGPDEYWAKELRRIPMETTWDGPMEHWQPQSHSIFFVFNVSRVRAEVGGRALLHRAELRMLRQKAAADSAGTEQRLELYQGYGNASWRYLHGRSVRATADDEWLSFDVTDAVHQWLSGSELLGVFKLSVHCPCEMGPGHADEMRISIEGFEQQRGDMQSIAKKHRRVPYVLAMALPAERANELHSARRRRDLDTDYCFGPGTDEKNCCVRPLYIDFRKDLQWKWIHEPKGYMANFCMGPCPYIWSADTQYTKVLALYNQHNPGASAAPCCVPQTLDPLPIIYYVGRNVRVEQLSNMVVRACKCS
Chain of human-chicken LAP-TGFβ1 chimera #1.3 on HT1080 cells (human/chicken chimera) (P01137 other isoform, or with tags, fused parts or gaps mutant): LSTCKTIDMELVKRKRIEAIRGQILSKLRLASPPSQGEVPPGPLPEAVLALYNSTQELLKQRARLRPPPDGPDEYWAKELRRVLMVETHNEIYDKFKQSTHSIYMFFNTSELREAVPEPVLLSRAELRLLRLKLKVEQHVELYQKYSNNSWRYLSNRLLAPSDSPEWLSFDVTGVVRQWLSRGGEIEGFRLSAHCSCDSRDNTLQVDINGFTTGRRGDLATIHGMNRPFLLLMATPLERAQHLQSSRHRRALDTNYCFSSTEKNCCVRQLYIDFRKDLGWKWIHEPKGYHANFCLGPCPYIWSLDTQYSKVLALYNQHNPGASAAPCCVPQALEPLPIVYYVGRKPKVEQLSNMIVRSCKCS
Chain of human LAP-TGFβ1 overexpressed on cells (human) (P01137 30-390): as the sequence (P01137 30-390 limits assumed) above

In [1], Isotype Control (antibody) returned a % of cells in Q1 (antibody axis positive, GARP negative) of 16.2% and a % of cells in Q2 (antibody axis positive, GARP positive) of 0.37%.

For the substance “rabbit monoclonal antibody raised against a peptide from the mature cytokine domain (Abcam ab179695)”, the % GFP+/APC+ cells in test [2] came out at 76.7%; in test [3], 68.9%; in test [4] it was 0.6%; in test [5] it was 1.5%; in test [6], 79.1%; in test [7], 0.5%. The % GFP+/APC+ cells in test [8] was 65.2%; in [9], 56.2%; in test [10], 11.9%; in test [11], 47.2%; in test [12], 7.5%; in test [13] it was 46.3%. Besides, in test [14], the % GFP+/APC+ cells stood at 78.3%.
